Assay results reported in patent publication US20220112285A1 (UNIVERSITY OF BIRMINGHAM, published 2022).

What was measured:
[1] = target: the molecule itself; assay: X-ray crystal structure; dimer believed to result from binding of the heparin oligosaccharide DP12
Experimental: The preformed G6b-B:Fab complex at 12 mg/ml, in a buffer solution of 20 mM HEPES, 75 mM NaCl, pH 7.1 was incubated for 1 hour at 4° C. with 2 mM DP12 (Iduron Cat. No. HO12). This protein sample was then microfuged at 16,000 g, for 10 minutes at 4° C., before drops were set up using 150 nl sample and 100 nl reservoir solution. Reservoir conditions were 50 mM MES pH6.2, 10% PEG 550MME, 5% glycerol, and 50 mM CaCl₂. Crystallisation plates were incubated at 20° C. and flat plate crystals appeared within 3 days. The crystal was harvested straight out of the growth drop into liquid nitrogen. Diffraction data were collected at 100K on beamline 103 at Diamond Light Source and processed by XDS1 and Aimless2 via AutoPROC3. The crystal had the space group C2 with the cell dimensions of a=183.80, b=72.34, c=131.04, alpha=90.0°, beta=124.52°, gamma=90.0°, and gave a 97% complete dataset to 3.1 Å.

[2] = target: T1, recombinant dimeric human G6b-B (human, UniProt O95866 18-142, limits assumed); assay: Fab as analyte over a G6b-B dimer channel (RU read-out; method not named), two stage reaction model
T1 construct: also called G6b-B dimer; dimeric G6b-B
T1 sequence (looked up): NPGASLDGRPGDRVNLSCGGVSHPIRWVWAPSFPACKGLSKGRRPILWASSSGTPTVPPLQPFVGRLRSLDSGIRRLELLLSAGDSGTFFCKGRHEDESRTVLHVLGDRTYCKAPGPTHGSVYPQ

[3] = target: T2, recombinant monomeric human G6b-B (human, UniProt O95866 18-142, limits assumed); assay: Fab as analyte over a G6b-B monomer channel (RU read-out; method not named), two stage reaction model
T2 construct: also called G6b-B monomer; monomeric G6b-B
T2 sequence (looked up): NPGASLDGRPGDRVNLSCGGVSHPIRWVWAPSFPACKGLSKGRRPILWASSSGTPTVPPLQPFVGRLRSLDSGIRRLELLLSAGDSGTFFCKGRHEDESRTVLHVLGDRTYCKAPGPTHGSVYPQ

mouse G6b-B = target: T3, mouse G6b-B (mouse, UniProt D7PDD4 18-140, limits assumed); assay: plate binding assay (coated protein, HRP anti-mouse IgG, TMB, A450), FIG. 8
T3 construct: construct not described
T3 sequence (looked up): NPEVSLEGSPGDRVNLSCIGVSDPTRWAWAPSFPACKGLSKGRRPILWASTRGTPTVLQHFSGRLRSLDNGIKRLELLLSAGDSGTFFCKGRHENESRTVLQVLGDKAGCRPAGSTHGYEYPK
Experimental: FIG. 8—illustrates that the 17-4 antibody robustly binds to recombinant monomeric and dimeric human G6b-B, but not to mouse G6b-B in an in vitro binding assay. Wells of 96-well plate were coated with the indicated proteins overnight. Following blocking, wells were incubated with the indicated anti-G6b monoclonal antibodies (10 μg/ml) or IgG control. Antibody binding was detected with HRP-conjugated anti-mouse antibody and 3,3,5,5-tetramethylbenzidine (TMB) substrate; absorbance was measured with a plate reader at 450 nm.
Wells of 96-well Nunc MaxiSorp™ plates (Thermo Scientific) were coated overnight with 50 μl of indicated proteins, diluted in PBS at a concentration of 5 μg/ml. Plates were washed three times with Tris buffered saline (TBS) containing 0.1% Tween 20 (TBS-T) and blocked for 1.5 h at 37° C. with 2% fat free milk in TBS, 0.02% Tween 20. After one washing step, wells were incubated with the indicated anti-G6b monoclonal antibodies (10 μg/ml) or IgG control, diluted in 3% BSA in TBS-T for 1.5 h at RT. After five washing steps, wells were incubated with HRP-conjugated anti-mouse IgG antibody (Sigma) for 1 h at RT at low agitation. Plates were washed seven times and signals were developed with TMB. The reaction was stopped by addition of 2 M H₂SO₄ (50 μl/well) and absorbance at 450 nm and 570 nm (background) was measured with a Versa max plate reader (Molecular Devices).

B1: G6b-B ECD (18-133, [N32D, S67A, S68A, S69A, T71A]) (receptor, human, UniProt O95866 18-133, looked up)
chain: NPGASLDGRPGDRVDLSCGGVSHPIRWVWAPSFPACKGLSKGRRPILWAAAAGAPTVPPLQPFVGRLRSLDSGIRRLELLLSAGDSGTFFCKGRHEDESRTVLHVLGDRTYCKAPG
notes: Expressed in HEK293 6E cells and used for the crystal structure with the 17-4 Fab and the heparin oligosaccharide DP12; also called G6b ECD; G6b-ECD
binding result [1]: binds

B2: His-tagged recombinant anti-G6b-B Fab fragment of antibody 17-4 (Fab, V domains shown)
VH: EVQLQQSGAELVKPGASVKLSCTASGFNIKETYIHWVKQRPEQGLEWIGRIDPADVYGRYDPKFQGKATITADTSSNSAYLQVSSLTSEDTAVYYCARSYGSSYGIDYWGQGTSVTVSS
VL: DIQMTQTTSSLSASLGDRVTISCRASQDISNYLNWYQQKPDGTVKLLIYYTSTLHSGVPSRFSGSGSGTDYSLTISNLEQEDVATYFCQQGYTLPWTFGGGTKLEIKR
notes: also called 17-4 Fab; 17-4 Fabs
Kd [2]: 0.262 nM
Kd [3]: 0.126 nM

B3: anti-G6b mouse monoclonal antibody 17-4 (antibody, mouse IgG1, kappa, V domains shown)
VH: EVQLQQSGAELVKPGASVKLSCTASGFNIKETYIHWVKQRPEQGLEWIGRIDPADVYGRYDPKFQGKATITADTSSNSAYLQVSSLTSEDTAVYYCARSYGSSYGIDYWGQGTSVTVSS
VL: DIQMTQTTSSLSASLGDRVTISCRASQDISNYLNWYQQKPDGTVKLLIYYTSTLHSGVPSRFSGSGSGTDYSLTISNLEQEDVATYFCQQGYTLPWTFGGGTKLEIKR
notes: The entries may include leader peptides, since VH CDR2 residues are numbered 69 and 71; no cleavage site is stated; also called exemplary antibody 17-4; mAb 17-4
binding result (mouse G6b-B): no binding (tested: 10 µg/ml)
